Reference: patent publication US20240301031A1 (JIANGSU HENGRUI PHARMACEUTICALS, published 2024)

Assays:
[1] = target: T1, human BAFF (10056-HNCH, Sino biological) (human, UniProt Q9Y275 134-285); assay: competition ELISA: BAFF-R coated on the plate, biotin-labelled BAFF at a fixed concentration pre-incubated with the diluted sample, streptavidin-HRP, OD450 (blocked ligand-receptor pair: BAFF/BAFF-R)
T1 construct: Bought protein
Method: (§1) A receptor protein was diluted to 2 μg/mL with PBS at pH 7.4 (BasalMedia, B320) and added to a 96-well microplate (Corning, 3590) at 100 μL/well. The plate was incubated at 4° C. overnight. After the liquid was discarded, 200 μL of 1% Casein blocking solution (Thermo, 37528) was added to each well for blocking, and the plate was incubated at 37° C. for 2 h. After the blocking was completed, the blocking solution was discarded, and the plate was washed 3 times with a PBST buffer (PBS at pH 7.4 containing 0.1% tween-20) for later use. A biotin-labeled ligand protein at a fixed concentration was mixed with the antibody or fusion protein diluted in gradient, pre-incubated at 37° C. for 30 min, and added to a blocked microplate. The plate was incubated at 37° C. for 1.5 h. After the incubation was completed, the plate was washed 3 times with PBST. 100 μL of streptavidin-HRP (Invitrogen, 434323, diluted at a ratio of 1:4000) was added to each well, and the plate was incubated at 37° C. for 1 h. The supernatant was removed, and the plate was washed 3 times with PBST. […] The plate was read for absorbance values at 450 nm on a microplate reader, the curves for the inhibition of the binding of the ligands to the receptors were fitted with software, and the IC₅₀ values were calculated. […]

[2] = target: T1, human BAFF (10056-HNCH, Sino biological); assay: competition ELISA: biotin-labeled BAFF to coated TACI
Method: as §1

[3] = target: BAFF (R&D Systems, 7537-BF) (UniProt Q9Y275 134-285); assay: cell-based or functional assay
[4] = target: T1, human BAFF (10056-HNCH, Sino biological); assay: ELISA, BAFF coated, sample titrated
Method: The binding activity of the antibodies or fusion proteins for BAFF, APRIL, and IL-12/23 p40 was assayed by the ELISA method (coating an antigen protein). The specific procedures were as follows:
A BAFF (Sino biological, 10056-HNCH), APRIL (R&D Systems, 5860-AP-010/CF), or IL-12/23 p40 (Sino biological, 10052-H08H) protein was diluted to 1 μg/mL with a PBS (BasalMedia, B320) buffer at pH 7.4, and added to a 96-well microplate (Corning, 3590) at 100 μL/well. The plate was incubated at 4° C. overnight. After the liquid was discarded, 300 μL of 5% skim milk (BD, 232100) diluted with PBS was added to each well for blocking, and the plate was incubated at 37° C. for 2 h. After the blocking was completed, the blocking solution was discarded, and the plate was washed 3 times with a PBST buffer (PBS at pH 7.4 containing 0.1% tween-20). 100 μL of test antibody or fusion protein solution diluted in a gradient was added to each well, and the plate was incubated at 37° C. for 1 h. After the incubation was completed, the plate was washed 3 times with PBST. […] The plate was washed 3 times with PBST. […] The plate was read for absorbance values at 450 nm on a microplate reader, the binding curves of the antibodies to an antigen were fitted with software, and the EC₅₀ values were calculated.

[5] = target: T1, human BAFF (10056-HNCH, Sino biological); assay: competition ELISA: biotin-labeled BAFF to coated BAFF-R
Method: The blocking activity of the antibodies and the fusion proteins for receptors and ligands such as BAFF/BAFF-R, BAFF/BCMA, BAFF/TACI, APRIL/BCMA, APRIL/TACI, and p40/IL-12R1 was assayed by the ELISA method. The specific procedures were as follows:
A receptor protein was diluted to 2 μg/mL with PBS at pH 7.4 (BasalMedia, B320) and added to a 96-well microplate (Corning, 3590) at 100 μL/well. The plate was incubated at 4° C. overnight. After the liquid was discarded, 200 μL of 1% Casein blocking solution (Thermo, 37528) was added to each well for blocking, and the plate was incubated at 37° C. for 2 h. After the blocking was completed, the blocking solution was discarded, and the plate was washed 3 times with a PBST buffer (PBS at pH 7.4 containing 0.1% tween-20) for later use. A biotin-labeled ligand protein at a fixed concentration was mixed with the antibody or fusion protein diluted in gradient, pre-incubated at 37° C. for 30 min, and added to a blocked microplate. The plate was incubated at 37° C. for 1.5 h. After the incubation was completed, the plate was washed 3 times with PBST. 100 μL of streptavidin-HRP (Invitrogen, 434323, diluted at a ratio of 1:4000) was added to each well, and the plate was incubated at 37° C. for 1 h. The supernatant was removed, and the plate was washed 3 times with PBST. 100 μL of TMB chromogenic substrate (KPL, 5120-0077) was added to each well, and the plate was incubated at room temperature for 10-15 min. The reaction was stopped by adding 50 μL of 1 M H₂SO₄ to each well. The plate was read for absorbance values at 450 nm on a microplate reader, the curves for the inhibition of the binding of the ligands to the receptors were fitted with software, and the IC₅₀ values were calculated.

[6] = target: T2, human APRIL (5860-AP-010/CF, R&D Systems) (human, UniProt O75888 115-250, limits assumed); assay: competition ELISA: biotin-labeled APRIL to coated TACI
T2 construct: Bought protein
T2 sequence (looked up): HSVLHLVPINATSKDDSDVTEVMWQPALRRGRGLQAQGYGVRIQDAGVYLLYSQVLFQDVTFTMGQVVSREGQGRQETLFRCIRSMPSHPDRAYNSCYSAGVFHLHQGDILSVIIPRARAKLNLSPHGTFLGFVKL
Method: as §1

[7] = target: T2, human APRIL (5860-AP-010/CF, R&D …); assay: competition ELISA: biotin-labeled APRIL to coated BCMA
Method: as §1

[8] = target: T1, human BAFF (10056-HNCH, Sino biological); assay: competition ELISA: biotin-labeled BAFF to coated BAFF-R; remark: listed apart in the source
How it was run: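 Receptor coated at 2 μg/mL in PBS pH 7.4 overnight at 4° C and casein-blocked; fixed-concentration biotinylated ligand preincubated 30 min at 37° C with serially diluted antibody/fusion protein, then bound 1.5 h at 37° C. Streptavidin-HRP/TMB read at 450 nm; IC₅₀ from fitted binding-inhibition curves.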

[9] = target: T2, human APRIL (5860-AP-010/CF, R&D …); assay: cell-based or functional assay
[10] = target: T1, human BAFF (10056-HNCH, Sino biological); assay: competition ELISA: biotin-labeled BAFF to coated BCMA
Method: as §1

B1: RCT-18 (Telitacicept) (Fc fusion)
chain: SRVDQEERFPQGLWTGVAMRSCPEEQYWDPLLGTCMSCKTICNHQSQRTCAAFCRSLSCRKEQGKFYDHLLRDCISCASICGQHPKQCAYFCENKLRSPVNLPPELDKTHTCPPCPAPEAEGAPSVFLFPPKPKDTLMISRTPEVTCVVVDVSHEDPEVKFNWYVDGVEVHNAKTKPREEQYNSTYRVVSVLTVLHQDWLNGKEYKCKVSNKALPSSIEKTISKAKGQPREPQVYTLPPSRDELTKNQVSLTCLVKGFYPSDIAVEWESNGQPENNYKTTPPVLDSDGSFFLYSKLTVDKSRWQQGNVFSCSVMHEALHNHYTQKSLSLSPGK
notes: Positive control; TACI part is positions 13-118 of the extracellular region of human TACI, the rest is Fc
B1 was tested, and the “IC50 (read off the curve)” value [1] was ~3 nM, the IC50 [2] was 0.779 nM and the “IC50 (nM) for the inhibition of the BAFF-induced B cell proliferation” value [3] was 0.382 nM. It also gave an EC50 [4] of 6.71 nM, an IC50 [5] of 19.2 nM and an IC50 [6] of 3.3 nM. For the same binder, the IC50 [7] was 25.1 nM, the IC50 [8] was 27.5 nM and the “IC50 (nM) for the inhibition of the APRIL-induced B cell proliferation” value [9] was 1.09 nM. It also gave an IC50 [10] of 0.973 nM.
